Reference: the supplement of paper PMC9732359
± gives the uncertainty stated by the source.

Assay: protein stability index of a GFP-peptide fusion (yeast GPS) (PSI 1-4); higher = more stable; sorted into four equal gates, so the index is relative within each strain
Outline: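 For each peptide, the protein stability index sums the read frequency in every gate after multiplying it by the gate number. Read frequencies came from plasmids that were PCR-amplified from each gate and Illumina-sequenced, with reads assigned to strains by barcodes. The gates were four equal bins of GFP/Cherry fluorescence ratio applied to mid-log yeast in leucine-free medium carrying a pooled library of tiled 17-residue yeast protein peptides fused downstream of GFP on a Cherry-expressing plasmid.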

## TRYELYIKNILEAPVKS [YLR335W/NUP2]
doa10∆
  protein stability index: 1.67 ± 0.045
pdr5∆
  protein stability index: 2.1 ± 0.054
san1∆
  protein stability index: 1.66 ± 0.087
ubr1∆
  protein stability index: 1.56 ± 0.057

## TFDGKPTATPSPFRPLE [YMR153W/NUP53]
doa10∆
  protein stability index: 3.02 ± 0.086
pdr5∆
  protein stability index: 2.15 ± 0.087
san1∆
  protein stability index: 2.38 ± 0.12
ubr1∆
  protein stability index: 2.58 ± 0.071

## ISLAVEGEPVNSPNYFV [COR1]
doa10∆
  protein stability index: 3.09 ± 0.14
pdr5∆
  protein stability index: 2.43 ± 0.094
san1∆
  protein stability index: 2.83 ± 0.12
ubr1∆
  protein stability index: 1.99 ± 0.065

## QGITRNVVNYLSINKNF [RPC17]
doa10∆
  protein stability index: 1.31 ± 0.059
pdr5∆
  protein stability index: 1.62 ± 0.051
san1∆
  protein stability index: 1.23 ± 0.093
ubr1∆
  protein stability index: 1.52 ± 0.038

## VRSFSKALDELKPEIEK [LRP1]
doa10∆
  protein stability index: 3.39 ± 0.088
pdr5∆
  protein stability index: 3.39 ± 0.074
san1∆
  protein stability index: 3.31 ± 0.052
ubr1∆
  protein stability index: 3.22 ± 0.064

## MVAYSPIIATYGNRAEQ [SRP68]
doa10∆
  protein stability index: 2.18 ± 0.085
pdr5∆
  protein stability index: 2.54 ± 0.059
san1∆
  protein stability index: 2.7 ± 0.082
ubr1∆
  protein stability index: 2.78 ± 0.073

## MTVTKVSLPEGSFKRVK [BRR2]
doa10∆
  protein stability index: 2.92 ± 0.13
pdr5∆
  protein stability index: 2.72 ± 0.11
san1∆
  protein stability index: 3.19 ± 0.076
ubr1∆
  protein stability index: 3.17 ± 0.076

## KSMLSKPETLSIGKNPF [SWI3]
doa10∆
  protein stability index: 2.69 ± 0.053
pdr5∆
  protein stability index: 2.91 ± 0.054
san1∆
  protein stability index: 2.6 ± 0.05
ubr1∆
  protein stability index: 2.9 ± 0.037

## ILDKIFYGVLDQGNGWL [RPN6]
doa10∆
  protein stability index: 3.31 ± 0.096
pdr5∆
  protein stability index: 2.65 ± 0.069
san1∆
  protein stability index: 2.45 ± 0.059
ubr1∆
  protein stability index: 3.11 ± 0.061

## GVLLPTRIKLLLTKNVS [RPS6A]
doa10∆
  protein stability index: 1.43 ± 0.11
pdr5∆
  protein stability index: 1.49 ± 0.11
ubr1∆
  protein stability index: 2.03 ± 0.11

## DDNEMTRDDLLTILMRS [RRI2]
doa10∆
  protein stability index: 2.44 ± 0.2
pdr5∆
  protein stability index: 2.66 ± 0.19

## INQINEAHPTKVKNFGV [RPL20A]
doa10∆
  protein stability index: 3.04 ± 0.074
pdr5∆
  protein stability index: 2.93 ± 0.049
san1∆
  protein stability index: 3.117 ± 0.031
ubr1∆
  protein stability index: 2.85 ± 0.038

## SIESKLEEHKNHLDELQ [SMC1]
doa10∆
  protein stability index: 2.99 ± 0.093
pdr5∆
  protein stability index: 2.86 ± 0.13
san1∆
  protein stability index: 2.92 ± 0.069
ubr1∆
  protein stability index: 3 ± 0.076

## HICGICGLMTVIAKLNH [RPB2]
doa10∆
  protein stability index: 1.65 ± 0.077
pdr5∆
  protein stability index: 1.33 ± 0.08
san1∆
  protein stability index: 1.23 ± 0.14
ubr1∆
  protein stability index: 1.43 ± 0.066

## RYIWRSLKDLSSLRNQE [RPN3]
doa10∆
  protein stability index: 2.77 ± 0.14
san1∆
  protein stability index: 2.85 ± 0.094

## QKVLNAHRQRAMEARSS [SMC4]
doa10∆
  protein stability index: 1.95 ± 0.12
pdr5∆
  protein stability index: 2.36 ± 0.15
san1∆
  protein stability index: 1.98 ± 0.15
ubr1∆
  protein stability index: 1.32 ± 0.073

## IRRLRVLRRLLAKYRDA [RPL19A]
doa10∆
  protein stability index: 1.19 ± 0.067
pdr5∆
  protein stability index: 1.41 ± 0.058
san1∆
  protein stability index: 1.34 ± 0.17
ubr1∆
  protein stability index: 1.25 ± 0.057

## SVRSLQKRIENGGNSVI [SRP68]
doa10∆
  protein stability index: 1.7 ± 0.085
pdr5∆
  protein stability index: 1.82 ± 0.064
san1∆
  protein stability index: 2.29 ± 0.096
ubr1∆
  protein stability index: 1.85 ± 0.1

## IEEIEYNVKNIIQGRKN [PCI8]
doa10∆
  protein stability index: 2.38 ± 0.059
pdr5∆
  protein stability index: 2.18 ± 0.052
san1∆
  protein stability index: 2.39 ± 0.095
ubr1∆
  protein stability index: 1.76 ± 0.042

## LLSIKLPGKVNTKEEFA [SNF5]
doa10∆
  protein stability index: 2.15 ± 0.17
pdr5∆
  protein stability index: 1.82 ± 0.083
san1∆
  protein stability index: 1.78 ± 0.16
ubr1∆
  protein stability index: 2.51 ± 0.23

## IMATNRLDILDPALLRP [RPT6]
doa10∆
  protein stability index: 2.92 ± 0.1
pdr5∆
  protein stability index: 3.13 ± 0.092
san1∆
  protein stability index: 2.81 ± 0.065
ubr1∆
  protein stability index: 3.25 ± 0.057

## DKFPYKKLELPKYIDEL [SWP82]
doa10∆
  protein stability index: 2.73 ± 0.074
pdr5∆
  protein stability index: 2 ± 0.058
san1∆
  protein stability index: 2.56 ± 0.064
ubr1∆
  protein stability index: 2.83 ± 0.08

## IMNVLSEGFEPTFSTHA [PRP8]
doa10∆
  protein stability index: 2.86 ± 0.096
pdr5∆
  protein stability index: 2.94 ± 0.075
san1∆
  protein stability index: 2.57 ± 0.07
ubr1∆
  protein stability index: 2.67 ± 0.069

## HYLVNLTSPAFGPHVDV [GRR1]
doa10∆
  protein stability index: 2.27 ± 0.14
pdr5∆
  protein stability index: 2.87 ± 0.12
san1∆
  protein stability index: 2.16 ± 0.25
ubr1∆
  protein stability index: 3.42 ± 0.28

## IGTINSIVHINSQERVQ [SIR2]
doa10∆
  protein stability index: 2.13 ± 0.037
pdr5∆
  protein stability index: 2.16 ± 0.034
san1∆
  protein stability index: 2.12 ± 0.05
ubr1∆
  protein stability index: 1.95 ± 0.026

## RELEQIKPKIALQDKEI [SNF12]
doa10∆
  protein stability index: 3.15 ± 0.18
pdr5∆
  protein stability index: 3.35 ± 0.17
ubr1∆
  protein stability index: 3.05 ± 0.13

## VILRKISMLVTQLQRGG [CSI1]
doa10∆
  protein stability index: 1.31 ± 0.059
pdr5∆
  protein stability index: 1.57 ± 0.056
san1∆
  protein stability index: 1.55 ± 0.098
ubr1∆
  protein stability index: 1.3 ± 0.045

## AQSVGCRVDFKNPHDII [RPL12A]
doa10∆
  protein stability index: 2.15 ± 0.061
pdr5∆
  protein stability index: 2.4 ± 0.078
san1∆
  protein stability index: 2.23 ± 0.12
ubr1∆
  protein stability index: 2.32 ± 0.1

## VNLEDNTQDLLLLLSLF [YML103C/NUP188]
doa10∆
  protein stability index: 1.68 ± 0.13
pdr5∆
  protein stability index: 2.7 ± 0.12
san1∆
  protein stability index: 2.41 ± 0.14
ubr1∆
  protein stability index: 2.47 ± 0.091

## QDVLQMLGRAGRPRYDT [BRR2]
doa10∆
  protein stability index: 3.41 ± 0.21
pdr5∆
  protein stability index: 2.56 ± 0.23
san1∆
  protein stability index: 3.43 ± 0.14
ubr1∆
  protein stability index: 2.81 ± 0.28

## LIIVTRKNYMHVKNFGF [YML031W/NDC1]
doa10∆
  protein stability index: 1.22 ± 0.042
pdr5∆
  protein stability index: 1.52 ± 0.048
san1∆
  protein stability index: 1.51 ± 0.1
ubr1∆
  protein stability index: 1.87 ± 0.04

## LDDTTIPVGLMAQENSM [MCD1]
doa10∆
  protein stability index: 1.5 ± 0.071
pdr5∆
  protein stability index: 1.84 ± 0.093
san1∆
  protein stability index: 1.56 ± 0.17
ubr1∆
  protein stability index: 1.87 ± 0.078

## LSRYVKWPEYVRVQRQK [RPL8A]
pdr5∆
  protein stability index: 2.67 ± 0.13
ubr1∆
  protein stability index: 3.02 ± 0.22

## EKSPDPTIRSNAVLGLG [YCS4]
doa10∆
  protein stability index: 2.38 ± 0.052
pdr5∆
  protein stability index: 2.26 ± 0.054
san1∆
  protein stability index: 2.3 ± 0.074
ubr1∆
  protein stability index: 2.53 ± 0.043

## KRPRSRTLTAVHDKVLE [RPS7B]
doa10∆
  protein stability index: 3.36 ± 0.17
pdr5∆
  protein stability index: 2.99 ± 0.13
san1∆
  protein stability index: 3.02 ± 0.07
ubr1∆
  protein stability index: 2.08 ± 0.24

## ADKRGVLTGGYLDQHKR [SMC3]
doa10∆
  protein stability index: 2.46 ± 0.11
pdr5∆
  protein stability index: 2.54 ± 0.1
san1∆
  protein stability index: 2.72 ± 0.074
ubr1∆
  protein stability index: 2.94 ± 0.052

## LPTVGFDFIKDNETPSK [YOR098C/NUP1]
doa10∆
  protein stability index: 3.15 ± 0.093
pdr5∆
  protein stability index: 3.2 ± 0.056
san1∆
  protein stability index: 3.08 ± 0.068
ubr1∆
  protein stability index: 3.27 ± 0.053

## IIMHKDVEIGRMPIMLR [RET1]
doa10∆
  protein stability index: 3.29 ± 0.26
pdr5∆
  protein stability index: 3.18 ± 0.16
san1∆
  protein stability index: 2.98 ± 0.079
ubr1∆
  protein stability index: 2.72 ± 0.16

## SMLFKTSQKMTSTVNRL [MCD1]
doa10∆
  protein stability index: 2.22 ± 0.073
pdr5∆
  protein stability index: 2.77 ± 0.15
san1∆
  protein stability index: 2.33 ± 0.14
ubr1∆
  protein stability index: 3.04 ± 0.14

## GENAAEKPDNSNHNNLN [SNF2]
doa10∆
  protein stability index: 3.01 ± 0.068
pdr5∆
  protein stability index: 3.25 ± 0.064
san1∆
  protein stability index: 3.27 ± 0.05
ubr1∆
  protein stability index: 3.21 ± 0.035

## TRELAEEGYSGVEVRVT [RPS3]
doa10∆
  protein stability index: 2.4 ± 0.059
pdr5∆
  protein stability index: 3 ± 0.073
san1∆
  protein stability index: 2.67 ± 0.053
ubr1∆
  protein stability index: 2.86 ± 0.04

## FIYKKVLKEKDVPAYNV [SRB8]
doa10∆
  protein stability index: 2.99 ± 0.086
pdr5∆
  protein stability index: 3.05 ± 0.062
san1∆
  protein stability index: 2.95 ± 0.058
ubr1∆
  protein stability index: 3.13 ± 0.042

## NDPAREKFSSFIESIVV [SNF12]
doa10∆
  protein stability index: 2.78 ± 0.056
pdr5∆
  protein stability index: 2.8 ± 0.058
san1∆
  protein stability index: 2.27 ± 0.071
ubr1∆
  protein stability index: 2.77 ± 0.04

## FSYQEVEFKLPKELVPS [CDC53]
doa10∆
  protein stability index: 2.13 ± 0.056
pdr5∆
  protein stability index: 2.16 ± 0.045
san1∆
  protein stability index: 2.07 ± 0.076
ubr1∆
  protein stability index: 1.91 ± 0.047

## KVGAEMMMQQQLKNVQL [MED2]
doa10∆
  protein stability index: 2.54 ± 0.11
pdr5∆
  protein stability index: 2.6 ± 0.085
san1∆
  protein stability index: 2.96 ± 0.07
ubr1∆
  protein stability index: 2.66 ± 0.085

## FMKSVIRSREAFSYEQA [DIS3]
doa10∆
  protein stability index: 2.28 ± 0.11
pdr5∆
  protein stability index: 2.73 ± 0.082
san1∆
  protein stability index: 2 ± 0.13
ubr1∆
  protein stability index: 2.71 ± 0.12

## ALMRCSFEETVEILFEA [RPO21]
doa10∆
  protein stability index: 3.12 ± 0.082
pdr5∆
  protein stability index: 2.6 ± 0.079
san1∆
  protein stability index: 3.06 ± 0.062
ubr1∆
  protein stability index: 2.85 ± 0.069

## RAGQRGYHSRTSINHKI [RPL3]
doa10∆
  protein stability index: 2.85 ± 0.13
pdr5∆
  protein stability index: 3.23 ± 0.14
san1∆
  protein stability index: 3 ± 0.096
ubr1∆
  protein stability index: 3.5 ± 0.12

## SLIKETNQLVLLQKMLN [YML103C/NUP188]
pdr5∆
  protein stability index: 1.29 ± 0.094
san1∆
  protein stability index: 1.06 ± 0.096
ubr1∆
  protein stability index: 1.02 ± 0.077

## TRIQYVDFACCTNLTNR [GRR1]
doa10∆
  protein stability index: 2.82 ± 0.057
pdr5∆
  protein stability index: 2.6 ± 0.069
san1∆
  protein stability index: 2.58 ± 0.1
ubr1∆
  protein stability index: 2.36 ± 0.049

## KMDFSSKEGQYKAKIKE [YIL149C/MLP2]
doa10∆
  protein stability index: 3.2 ± 0.074
pdr5∆
  protein stability index: 3.27 ± 0.071
san1∆
  protein stability index: 3.17 ± 0.063
ubr1∆
  protein stability index: 3.16 ± 0.048

## DVFNLLPNLGTPDDDEI [RPN8]
doa10∆
  protein stability index: 1.96 ± 0.071
pdr5∆
  protein stability index: 2.02 ± 0.079
san1∆
  protein stability index: 1.43 ± 0.12
ubr1∆
  protein stability index: 1.43 ± 0.056
